Measured values as given in patent US20200040059A1.
Each block holds one substance with its values, some of them ahead of it.

Key:
[1] = molecular target: CD80 (Homo sapiens (Human)) (UniProt P33681); assay: flow cytometry, cells expressing CD80
[2] = molecular target: PD-1 (Homo sapiens (Human)) (UniProt Q15116); assay: flow cytometry, cells expressing PD-1
CD28 (human) = CD28 (human) (UniProt P10747); assay: flow cytometry on HEK293 cells transfected with CD28
CTLA4 (human) = CTLA4 (human) (UniProt P16410); assay: flow cytometry on HEK293 cells transfected with CTLA4
PD-L1 (human) = PD-L1 (human) (UniProt Q9NZQ7); assay: flow cytometry on HEK293 cells transfected with PD-L1
[3] = molecular target: human CD28, full-length, expressed on transfected Expi293 cells (human) (UniProt P10747); assay: flow cytometry on CD28-expressing Expi293 cells
[4] = molecular target: human PD-L1, full-length, expressed on transfected Expi293 cells (human) (UniProt Q9NZQ7); assay: flow cytometry on PD-L1-expressing Expi293 cells
[5] = molecular target: human CTLA-4, full-length, expressed on transfected Expi293 cells (human) (UniProt P16410); assay: flow cytometry on CTLA-4-expressing Expi293 cells
[6] = molecular target: human CD28, full length, on transfected HEK293 cells (human) (UniProt P10747); assay: flow cytometry, Fc fusion at 66.6 nM on HEK293 cells transfected with CD28
[7] = molecular target: human PD-L1, full length, on transfected HEK293 cells (human) (UniProt Q9NZQ7); assay: flow cytometry, Fc fusion at 22.2 nM on HEK293 cells transfected with PD-L1
[8] = molecular target: human CTLA4, full length, on transfected HEK293 cells (human) (UniProt P16410); assay: flow cytometry, Fc fusion at 66.6 nM on HEK293 cells transfected with CTLA4
Sequence of human CTLA4, full length, on transfected HEK293 cells (human) (P16410 36-223 limits assumed): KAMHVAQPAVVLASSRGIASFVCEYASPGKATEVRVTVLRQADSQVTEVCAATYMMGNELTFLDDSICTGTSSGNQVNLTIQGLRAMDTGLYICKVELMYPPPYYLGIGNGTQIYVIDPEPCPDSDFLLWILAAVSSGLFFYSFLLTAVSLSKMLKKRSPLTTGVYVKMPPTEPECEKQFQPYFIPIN

Sequence of human CTLA-4, full-length, expressed on transfected Expi293 cells (human) (P16410 36-223 limits assumed): as above
Sequence of CTLA4 (human) (P16410 36-223 limits assumed): as above
Sequence of PD-L1 (human) (Q9NZQ7 19-290 limits assumed): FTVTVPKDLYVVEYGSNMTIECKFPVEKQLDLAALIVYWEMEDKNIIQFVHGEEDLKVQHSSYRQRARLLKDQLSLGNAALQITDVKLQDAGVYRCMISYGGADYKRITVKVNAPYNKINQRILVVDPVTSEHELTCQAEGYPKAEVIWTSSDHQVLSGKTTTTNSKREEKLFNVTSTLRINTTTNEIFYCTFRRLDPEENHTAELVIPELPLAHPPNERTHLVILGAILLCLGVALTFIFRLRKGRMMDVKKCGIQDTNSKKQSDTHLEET
Sequence of human PD-L1, full-length, expressed on transfected Expi293 cells (human) (Q9NZQ7 19-290 limits assumed): as above
Sequence of human PD-L1, full length, on transfected HEK293 cells (human) (Q9NZQ7 19-290 limits assumed): as above

- MFI at 20 nM [1]: 412
- MFI at 20 nM [2]: 70
Substance: variant PD-L1 ECD-Fc Y10F, M18V, S99G, Q138R, T203A (from UniProt Q9NZQ7 19-238) (Fc fusion)

- MFI at 66.6 nM (CD28 (human)): 4840 MFI
- MFI at 66.6 nM (CTLA4 (human)): 61300 MFI
- MFI at 22.2 nM (PD-L1 (human)): 20900 MFI
Substance: CD80 IgV-Fc L25S/E35D/M47I/D90N (from UniProt P33681 35-141) (Fc fusion)

- MFI [3]: 20 MFI
- MFI [4]: 6 MFI
- MFI [5]: 74 MFI
Substance: CD80 variant K37E/F59S/L70Q/A91G/T120S/T130A ECD-Fc fusion (from UniProt P33681 35-242)

- MFI [3]: 89 MFI
- MFI parental ratio (ratio to WT CD80 ECD-Fc) [3]: 0.94
- MFI [4]: 6 MFI
- MFI parental ratio (ratio to WT CD80 ECD-Fc) [4]: 0.09
- MFI [5]: 263 MFI
- MFI parental ratio (ratio to WT CD80 ECD-Fc) [5]: 1.26
Substance: CD80 variant V4M/L70Q/A91G/T120S/T130A ECD-Fc fusion

- MFI [3]: 41700 MFI
- MFI [5]: 49400 MFI
Substance: CD80 variant K89R/D90K/A91G/F92Y/K93R/N122S/N178S ECD-Fc fusion (from UniProt P33681 35-242)

- MFI at 20 nM [1]: 693
- MFI at 20 nM [2]: 830
Substance: variant PD-L1 ECD-Fc K28I, S99G (Fc fusion)

- MFI at 66.6 nM [6]: 2270 MFI
- MFI at 22.2 nM [7]: 55500 MFI
- MFI at 66.6 nM [8]: 40300 MFI
Substance: CD80 variant IgV-Fc A26E/E35D/M47L/L85Q (from UniProt P33681 35-141) (Fc fusion)

- MFI at 66.6 nM (CD28 (human)): 7340 MFI
- MFI at 66.6 nM (CTLA4 (human)): 105000 MFI
- MFI at 22.2 nM (PD-L1 (human)): 97700 MFI
Substance: CD80 IgV-Fc M47I/E88D (from UniProt P33681 35-141) (Fc fusion)

- MFI [3]: 1070 MFI
- MFI parental ratio (ratio to WT CD80 ECD-Fc) [3]: 0.08
- MFI [4]: 1120 MFI
- MFI parental ratio (ratio to WT CD80 ECD-Fc) [4]: 0.06
- MFI [5]: 1020 MFI
- MFI parental ratio (ratio to WT CD80 ECD-Fc) [5]: 0.02
Substance: CD80 variant E24G/R29D/Y31L/Q33H/K36G/M38I/T41A/M43R/M47T/F59L/E81V/L85R/K89N/A91T/F92P/K93V/R94L/H96R ECD-Fc fusion

- MFI [5]: 148 MFI
Substance: CD80 variant K89E/T130A ECD-Fc fusion (from UniProt P33681 35-242)

- MFI at 20 nM [1]: 6220
- MFI at 20 nM [2]: 62
Substance: variant PD-L1 ECD-Fc I36T, I83T, M97L, K144E, P198T (Fc fusion)

- MFI at 66.6 nM (CD28 (human)): 6070 MFI
- MFI at 66.6 nM (CTLA4 (human)): 54500 MFI
- MFI at 22.2 nM (PD-L1 (human)): 4230 MFI
Substance: CD80 IgV-Fc M42I/I61V/A71D (from UniProt P33681 35-141) (Fc fusion)

- MFI [3]: 32 MFI
- MFI [4]: 6 MFI
- MFI [5]: 65 MFI
Substance: CD80 variant T28S/L70Q/A91G/E95K/T120S/T130A ECD-Fc fusion (from UniProt P33681 35-242)

- MFI at 20 nM [1]: 200000
- MFI at 20 nM [2]: 59
Substance: CTLA4-Fc (Fc fusion)

- MFI at 66.6 nM (CD28 (human)): 14600 MFI
- MFI at 66.6 nM (CTLA4 (human)): 207000 MFI
- MFI at 22.2 nM (PD-L1 (human)): 146000 MFI
Substance: CD80 IgV-Fc M47V/N48H (from UniProt P33681 35-141) (Fc fusion)

- MFI at 66.6 nM (CD28 (human)): 2660 MFI
- MFI at 66.6 nM (CTLA4 (human)): 2000 MFI
- MFI at 22.2 nM (PD-L1 (human)): 4410 MFI
Substance: CD80 IgV-Fc T79P (from UniProt P33681 35-141) (Fc fusion)

- MFI at 66.6 nM [6]: 18600 MFI
- MFI at 22.2 nM [7]: 1690 MFI
- MFI at 66.6 nM [8]: 45000 MFI
Substance: CD80 variant IgV-Fc L70Q/A71D (from UniProt P33681 35-141) (Fc fusion)

- MFI at 22.2 nM [7]: 3550 MFI
- MFI at 66.6 nM [8]: 60300 MFI
Substance: CD80 variant IgV-Fc V20I/A71D (from UniProt P33681 35-141) (Fc fusion)

- MFI at 66.6 nM [6]: 5410 MFI
- MFI at 22.2 nM [7]: 9510 MFI
- MFI at 66.6 nM [8]: 83100 MFI
Substance: CD80 variant IgV-Fc A26P/E35D/M43I/L85Q/E88D (from UniProt P33681 35-141) (Fc fusion)

- MFI [4]: 6 MFI
- MFI [5]: 245 MFI
Substance: CD80 variant E52G/L70Q/A91G/T120S/T130A ECD-Fc fusion (from UniProt P33681 35-242)

- MFI at 22.2 nM [7]: 40600 MFI
- MFI at 66.6 nM [8]: 102000 MFI
Substance: CD80 variant IgV-Fc E35D/M43L/L70M (from UniProt P33681 35-141) (Fc fusion)

- MFI at 66.6 nM (CD28 (human)): 2530 MFI
- MFI at 66.6 nM (CTLA4 (human)): 4410 MFI
- MFI at 22.2 nM (PD-L1 (human)): 4030 MFI
Substance: CD80 IgV-Fc E35D/M47I/L65P/D90N (from UniProt P33681 35-141) (Fc fusion)

- MFI at 66.6 nM (CD28 (human)): 22800 MFI
- MFI at 22.2 nM (PD-L1 (human)): 33400 MFI
Substance: CD80 IgV-Fc V22I/L70M/A71D (from UniProt P33681 35-141) (Fc fusion)

- MFI at 22.2 nM [7]: 1450 MFI
- MFI at 66.6 nM [8]: 85100 MFI
Substance: CD80 variant IgV-Fc Q27H/E35G/A71D/L72P/T79I (from UniProt P33681 35-141) (Fc fusion)
